Source: FireProtDB (doi:10.1002/pro.5560010205)

Conditions: Mus musculus; pH 4; 23 °C; GdnHCl; Fluorescence; sodium phosphate 100 mM; reversible: yes; whole UniProt chain shown

B1: Beta-nerve growth factor wild type, P01139 (protein)
chain: MSMLFYTLITAFLIGVQAEPYTDSNVPEGDSVPEAHWTKLQHSLDTALRRARSAPTAPIAARVTGQTRNITVDPRLFKKRRLHSPRVLFSTQPPPTSSDTLDLDFQAHGTIPFNRTHRSKRSSTHPVFHMGEFSVCDSVSVWVGDKTTATDIKGKEVTVLAEVNINNSVFRQYFFETKCRASNPVESGCRGIDSKHWNSYCTTTHTFVKALTTDEKQAAWRFIRIDTACVCVLSRKATRRG
Question: Which unfolding free energy does the source give for B1 here?
Answer: 14.5 kcal/mol
